# In patent US5612455, “Nuclear factors and binding assay” (Tularik, Inc.):
# T1: NFAT3 full length (Homo sapiens) (UniProt Q14934)
# T1 sequence: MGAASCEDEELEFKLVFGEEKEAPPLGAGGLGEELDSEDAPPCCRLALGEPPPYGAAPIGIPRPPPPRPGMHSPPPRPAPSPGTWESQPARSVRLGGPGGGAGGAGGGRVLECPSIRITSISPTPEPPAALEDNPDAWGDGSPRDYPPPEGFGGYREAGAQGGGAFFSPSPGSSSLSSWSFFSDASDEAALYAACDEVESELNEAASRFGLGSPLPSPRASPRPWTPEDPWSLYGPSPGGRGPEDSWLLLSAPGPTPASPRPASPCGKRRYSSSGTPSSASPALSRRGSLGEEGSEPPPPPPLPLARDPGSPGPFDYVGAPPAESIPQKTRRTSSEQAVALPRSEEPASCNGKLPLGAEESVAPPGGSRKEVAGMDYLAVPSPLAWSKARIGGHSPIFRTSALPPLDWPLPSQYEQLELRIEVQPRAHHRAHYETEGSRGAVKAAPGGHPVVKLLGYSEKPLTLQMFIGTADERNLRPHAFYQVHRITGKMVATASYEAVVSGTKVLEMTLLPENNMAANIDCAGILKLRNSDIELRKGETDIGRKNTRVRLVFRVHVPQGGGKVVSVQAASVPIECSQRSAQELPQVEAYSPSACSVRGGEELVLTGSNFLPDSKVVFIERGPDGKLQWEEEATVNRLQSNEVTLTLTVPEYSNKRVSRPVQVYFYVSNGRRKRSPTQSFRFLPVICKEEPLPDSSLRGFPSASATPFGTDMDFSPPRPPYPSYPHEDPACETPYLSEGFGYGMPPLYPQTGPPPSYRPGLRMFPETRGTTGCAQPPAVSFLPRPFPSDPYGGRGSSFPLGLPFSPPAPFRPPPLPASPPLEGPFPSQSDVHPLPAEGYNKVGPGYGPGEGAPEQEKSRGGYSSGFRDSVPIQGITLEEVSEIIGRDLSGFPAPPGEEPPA
# T2: NFAT4 rel domain (Homo sapiens, UniProt Q12968 SEQ:393-708)
# T2 sequence: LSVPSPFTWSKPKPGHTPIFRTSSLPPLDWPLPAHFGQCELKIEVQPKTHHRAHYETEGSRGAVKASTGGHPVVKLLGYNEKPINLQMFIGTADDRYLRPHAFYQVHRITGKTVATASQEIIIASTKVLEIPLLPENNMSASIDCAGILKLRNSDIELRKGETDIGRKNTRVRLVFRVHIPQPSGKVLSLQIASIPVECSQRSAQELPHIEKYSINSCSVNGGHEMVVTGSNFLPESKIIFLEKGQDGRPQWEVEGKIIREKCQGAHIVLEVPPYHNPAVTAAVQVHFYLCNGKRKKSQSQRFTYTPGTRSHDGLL
# T3: NFATp rel domain (353 aa, homologous to murine NFATp 185-537) (Homo sapiens, UniProt Q13469 SEQ:390-742)
# T3 sequence: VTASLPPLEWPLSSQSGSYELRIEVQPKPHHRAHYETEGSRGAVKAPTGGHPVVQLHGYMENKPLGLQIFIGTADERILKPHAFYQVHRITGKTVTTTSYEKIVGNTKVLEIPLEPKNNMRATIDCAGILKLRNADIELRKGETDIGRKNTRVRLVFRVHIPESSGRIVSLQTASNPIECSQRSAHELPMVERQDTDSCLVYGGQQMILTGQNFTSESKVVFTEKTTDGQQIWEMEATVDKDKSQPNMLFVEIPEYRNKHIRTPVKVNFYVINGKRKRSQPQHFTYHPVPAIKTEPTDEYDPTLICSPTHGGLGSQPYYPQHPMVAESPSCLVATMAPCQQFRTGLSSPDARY
# T4: NFAT3 rel domain (Homo sapiens, UniProt Q14934 SEQ:400-744)
# T4 sequence: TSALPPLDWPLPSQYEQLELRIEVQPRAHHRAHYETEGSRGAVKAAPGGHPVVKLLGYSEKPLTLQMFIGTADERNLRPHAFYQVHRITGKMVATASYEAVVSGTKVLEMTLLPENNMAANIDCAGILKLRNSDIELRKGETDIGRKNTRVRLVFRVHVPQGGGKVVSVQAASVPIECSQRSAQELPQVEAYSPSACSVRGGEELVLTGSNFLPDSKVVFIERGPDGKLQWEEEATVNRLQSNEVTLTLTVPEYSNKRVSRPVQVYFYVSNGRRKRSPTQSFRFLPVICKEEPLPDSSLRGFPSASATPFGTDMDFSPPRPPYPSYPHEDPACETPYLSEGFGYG
# T5: NFATc rel domain (NFATc-309) (Homo sapiens, UniProt O95644 SEQ:408-716)
# T5 sequence: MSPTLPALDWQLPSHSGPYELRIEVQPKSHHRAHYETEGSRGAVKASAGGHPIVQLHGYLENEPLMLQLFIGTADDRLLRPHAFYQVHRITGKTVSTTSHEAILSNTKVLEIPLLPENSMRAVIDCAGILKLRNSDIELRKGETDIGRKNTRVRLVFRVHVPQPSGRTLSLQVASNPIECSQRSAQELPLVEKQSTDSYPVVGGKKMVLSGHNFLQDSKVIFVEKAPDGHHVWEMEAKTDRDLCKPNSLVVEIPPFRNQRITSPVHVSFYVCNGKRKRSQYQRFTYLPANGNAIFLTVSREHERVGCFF
# What was measured:
# [1] = molecular target: T1, NFAT3 full length (Homo sapiens); test: cell_activity; settings: HepG2 cells; COS cells 50-fold independent of PMA and ionomycin
# NFAT4 rel domain [2] = molecular target: T2, NFAT4 rel domain; test: EMSA; binding not detectable; core only printed; settings: tags: N-terminal 8 aa heart muscle kinase site (pT7-HMK), E. coli
# [3] = molecular target: NFAT4 rel domain + c-Jun/Fra-1 (Homo sapiens, UniProt Q12968;P05412;P15407 Q12968:393-708,P05412:1-331,P15407:1-271); test: EMSA; highly cooperative; NFAT4 alone does not bind; jun homodimers less effective; exact EMSA probe not stated; settings: tags: NFAT4 HMK site
# [4] = molecular target: NFATp rel domain + c-Jun/Fra-1 (Homo sapiens, UniProt Q13469;P05412;P15407 Q13469:392-744,P05412:1-331,P15407:1-271); test: EMSA; highly cooperative; similar affinity for all four NFATs; jun homodimers less effective; exact EMSA probe not stated; settings: tags: NFATp HMK site
# [5] = molecular target: NFAT3 rel domain + c-Jun/Fra-1 (Homo sapiens, UniProt Q14934;P05412;P15407 Q14934:400-744,P05412:1-331,P15407:1-271); test: EMSA; highly cooperative; jun homodimers less effective; exact EMSA probe not stated; settings: tags: NFAT3 HMK site
# [6] = molecular target: NFATc rel domain + c-Jun/Fra-1 (Homo sapiens, UniProt O95644-2;P05412;P15407 O95644-2:408-716,P05412:1-331,P15407:1-271); test: as above; settings: tags: NFATc HMK site
# [7] = molecular target: T3, NFATp rel domain (353 aa, homologous to …); test: EMSA; probe length not stated, core SEQ 15; affinity similar to NFATc and NFAT3; 50 mM KCl, RT; also purified on SEQ 17 affinity resin; settings: tags: N-terminal 8 aa heart muscle kinase site (pT7-HMK), E. coli
# NFAT3 rel domain = molecular target: T4, NFAT3 rel domain; test: EMSA; probe length not stated, core SEQ 15; affinity similar to NFATp and NFATc; also purified on SEQ 17 resin; settings: tags: N-terminal 8 aa heart muscle kinase site (pT7-HMK), E. coli
# [8] = molecular target: T5, NFATc rel domain (NFATc-309); test: EMSA; probe length not stated, core SEQ 15; affinity similar to NFATp and NFAT3; also purified on SEQ 17 resin; settings: tags: N-terminal 8 aa heart muscle kinase site (pT7-HMK), E. coli
# NFAT4 rel domain [9] = molecular target: T2, NFAT4 rel domain; test: EMSA; probe length not stated, core SEQ 15; also purified on SEQ 17 resin; settings: tags: N-terminal 8 aa heart muscle kinase site (pT7-HMK), E. coli
# Sequence of NFATc rel domain + c-Jun/Fra-1 (P05412 whole entry, chain 2 of 2, the tested form may be a part): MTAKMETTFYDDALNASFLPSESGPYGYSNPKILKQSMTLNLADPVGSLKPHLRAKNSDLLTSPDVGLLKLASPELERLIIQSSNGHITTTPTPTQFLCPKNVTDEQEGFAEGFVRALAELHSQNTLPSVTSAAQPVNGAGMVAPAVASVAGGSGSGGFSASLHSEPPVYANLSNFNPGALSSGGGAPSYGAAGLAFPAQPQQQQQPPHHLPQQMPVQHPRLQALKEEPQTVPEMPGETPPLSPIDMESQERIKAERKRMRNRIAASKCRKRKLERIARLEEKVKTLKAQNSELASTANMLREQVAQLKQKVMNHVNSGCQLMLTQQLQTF
# Sequence of NFATc rel domain + c-Jun/Fra-1 (P15407 whole entry, chain 3 of 2, the tested form may be a part): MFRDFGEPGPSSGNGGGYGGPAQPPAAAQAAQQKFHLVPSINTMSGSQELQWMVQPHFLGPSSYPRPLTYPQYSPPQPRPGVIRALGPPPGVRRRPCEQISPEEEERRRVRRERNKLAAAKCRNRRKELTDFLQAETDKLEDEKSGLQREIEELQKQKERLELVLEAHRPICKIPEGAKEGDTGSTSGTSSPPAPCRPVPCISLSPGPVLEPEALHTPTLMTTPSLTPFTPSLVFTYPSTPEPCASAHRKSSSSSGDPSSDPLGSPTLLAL
# Sequence of NFAT4 rel domain + c-Jun/Fra-1 (P05412 whole entry, chain 2 of 2, the tested form may be a part): as the sequence (P05412 whole entry, chain 2 of 2, the tested form may be a part) above
# Sequence of NFAT4 rel domain + c-Jun/Fra-1 (P15407 whole entry, chain 3 of 2, the tested form may be a part): as the sequence (P15407 whole entry, chain 3 of 2, the tested form may be a part) above
# Sequence of NFAT3 rel domain + c-Jun/Fra-1 (P05412 whole entry, chain 2 of 2, the tested form may be a part): as the sequence (P05412 whole entry, chain 2 of 2, the tested form may be a part) above
# Sequence of NFAT3 rel domain + c-Jun/Fra-1 (P15407 whole entry, chain 3 of 2, the tested form may be a part): as the sequence (P15407 whole entry, chain 3 of 2, the tested form may be a part) above
# Sequence of NFATp rel domain + c-Jun/Fra-1 (Q13469 392-744, chain 1 of 3): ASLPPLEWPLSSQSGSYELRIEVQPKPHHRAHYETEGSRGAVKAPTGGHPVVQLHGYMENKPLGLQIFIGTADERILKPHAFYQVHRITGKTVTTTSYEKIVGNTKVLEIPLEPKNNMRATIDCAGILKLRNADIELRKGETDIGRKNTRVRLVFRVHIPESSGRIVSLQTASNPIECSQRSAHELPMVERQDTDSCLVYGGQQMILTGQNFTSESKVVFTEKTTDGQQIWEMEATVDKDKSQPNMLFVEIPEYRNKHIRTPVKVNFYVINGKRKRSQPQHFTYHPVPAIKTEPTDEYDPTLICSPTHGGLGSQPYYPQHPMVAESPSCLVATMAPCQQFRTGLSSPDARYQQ
# Sequence of NFATp rel domain + c-Jun/Fra-1 (P05412 whole entry, chain 2 of 3, the tested form may be a part): as the sequence (P05412 whole entry, chain 2 of 2, the tested form may be a part) above
# Sequence of NFATp rel domain + c-Jun/Fra-1 (P15407 whole entry, chain 3 of 3, the tested form may be a part): as the sequence (P15407 whole entry, chain 3 of 2, the tested form may be a part) above
molecule,measurement,setting,value
3x antigen response element (-286 to -257) tk reporter,activity (fold activation),[1],140
IL-2 promoter NFAT site (distal antigen response element) (dsDNA) DNA 1: GGAAAAACTG DNA 2: CAGTTTTTCC,binding result,NFAT4 rel domain [2],no binding
IL-2 NFAT/AP-1 composite element (dsDNA) DNA 1: GGAGGAAAAACTGTTTCATACAGAAGGCGT DNA 2: ACGCCTTCTGTATGAAACAGTTTTTCCTCC,binding result,[3],binds
same,binding result,[4],binds
same,binding result,[5],binds
same,binding result,[6],binds
IL-4 promoter NFAT site (dsDNA) DNA 1: TACATTGGAAAATTTTATTACAC DNA 2: GTGTAATAAAATTTTCCAATGTA,binding result,[7],binds
same,binding result,NFAT3 rel domain,binds
same,binding result,[8],binds
same,binding signal,NFAT4 rel domain [9],"> 10 fold lower affinity than NFATp, NFATc, NFAT3"
